Experimental data as given in PMC10846113, “fosA11, a novel chromosomal-encoded fosfomycin resistance gene identified in Providencia rettgeri” (Microbiology Spectrum, 2023).

How the values were obtained:
[1] = tested on: C[C@@H]1O[C@@H]1P(=O)(O)O; experiment: glutathione consumption, monochlorobimane fluorescence, Michaelis-Menten fit; assay type: biochemical, Escherichia coli; conditions: 30 mM glutathione, 0.05 mM MnCl2, 0.1 M HEPES pH 8.0, 25 °C
Excerpt: glutathione consumption, monochlorobimane fluorescence, Michaelis-Menten fit on FosA3

[2] = tested on: C[C@@H]1O[C@@H]1P(=O)(O)O; experiment: as above; assay type: biochemical, Providencia rettgeri; conditions: 30 mM glutathione, 0.05 mM MnCl2, 0.1 M HEPES pH 8.0, 25 °C
Excerpt: glutathione consumption, monochlorobimane fluorescence, Michaelis-Menten fit on FosA11

Substance	Km [1] [mM]	kcat [1] [s⁻¹]	kcat/Km [1] [M⁻¹ s⁻¹]	Km [2] [mM]	kcat [2] [s⁻¹]	kcat/Km [2] [M⁻¹ s⁻¹]
FosA3 (Escherichia coli)	12 ± 2	112 ± 5.3	9000 ± 1000			
FosA11 (Providencia rettgeri)				18 ± 4	56.1 ± 3.2	2900 ± 500
